Experiments:
human serum albumin [1] = biological target: T1, human serum albumin (human, UniProt P02768 25-609); experiment: BLI, Octet 384, VHH-Fc on AHC sensor, albumin in solution
T1 construct: also called HSA; Human Albumin
Method: (§1) To assess binding, the VHH were cloned onto a human IgG1 Fc and hinge for ease of purification and analysis. […] The VHH-Fc constructs were loaded onto AHC sensors prior to exposure to the monomeric targets, human, mouse or rhesus albumin in solution to determine association and dissociation. In the case of the pH assessment, the binding reaction and dissociation buffer were at the described pH. Data acquisition was performed at 30° C.
(§2) To assess binding to albumin, the VHH were cloned onto a human IgG1 Fc and hinge for ease of purification and analysis. […] The VH-Fc constructs were loaded onto AHC sensors prior to exposure to the monomeric targets human, mouse or rhesus albumin in solution for association and then dissociation in buffer solution (Table 5 and FIGS. 5A-C).

Mouse Albumin = biological target: T2, Mouse Albumin (mouse, UniProt P07724 25-608); experiment: as above
T2 construct: also called murine albumin
Method: as §1, §2

Rhesus albumin = biological target: T3, Rhesus albumin (rhesus monkey, UniProt Q28522 17-600); experiment: as above
T3 construct: also called rhesus monkey albumin
Method: as §1, §2

human serum albumin [2] = biological target: T1, human serum albumin; experiment: BLI, VHH-Fc on sensor, human albumin in solution, pH 5.5, 30 C, 1:1 model
Method: as §2
(§3) To determine the dissociation constant, the binding reaction and dissociation were performed at the described pH. Data acquisition was performed at 30° C.
(§4) Data (time and response units) was analyzed using the ForteBio Data Analysis Software. The data was fit to a 1:1 binding model to calculate an association (Kon) and dissociation rate (Koff), and KD was calculated using the ratio kd/ka.

human serum albumin [3] = biological target: T1, human serum albumin; experiment: BLI, VHH-Fc on sensor, human albumin in solution, pH 6.0, 30 C, 1:1 model
Method: as §2, §3, §4

human serum albumin [4] = biological target: T1, human serum albumin; experiment: BLI, VHH-Fc on sensor, human albumin in solution, pH 6.5, 30 C, 1:1 model
Method: as §2, §3, §4

human serum albumin [5] = biological target: T1, human serum albumin; experiment: BLI, VHH-Fc on sensor, human albumin in solution, pH 7.0, 30 C, 1:1 model
Method: as §2, §3, §4

human serum albumin [6] = biological target: T1, human serum albumin; experiment: BLI, Octet 384, VHH-Fc on AHC sensor, albumin in solution; VHH-Fc on AHC sensor, monomeric human albumin in solution; pH of Table 5 not stated

B1: VHH-Fc construct (anti-albumin VHH cloned onto a human IgG1 Fc and hinge) (Fc fusion)
chain: EVQLLESGGGLVQPGGSLRLSCAASGETLDYYAIGWFRQAPGKEREGVSCIASSGGSTNYADSVKGRFTISRDNSKNTVYLQMNSLKPEDTAVYYCAAAVLECRTVVRGYDYWGQGTQVTVSS
notes: also called VH-Fc constructs; not shown: human IgG1 hinge and Fc
Q: With B1 as the binder, how does the Response (human serum albumin [1]) read?
A: 0.178

Q: What about the Kd (Mouse Albumin) of the same binder?
A: 10.4 nM

Q: And the Response (Mouse Albumin)?
A: 0.507

Q: What about the Kd (Rhesus albumin) of the same binder?
A: 66.2 nM

Q: What about the Response (Rhesus albumin) of the same binder?
A: 0.34

Q: And the Kd (human serum albumin [2])?
A: 12.3 nM

Q: What about the Kd (human serum albumin [3]) of the same binder?
A: 3.81 nM

Q: And the Kd (human serum albumin [4])?
A: 8.2 nM

Q: What about the Kd (human serum albumin [5]) of the same binder?
A: 6.63 nM

Q: What about the Kd (human serum albumin [6]) of the same binder?
A: 159 nM

Source: US20250230210A1 (PARTNER THERAPEUTICS, published 2025)
